Experimental findings from US20140044713A1 (KONINKLIJKE NEDERLANDSE AKADEMIE VAN WETENSCHAPPEN, published 2014) are described below.

The target in assay [1] is T1, tagged Frizzled5 (Frz5) (UniProt Q13467 27-585, limits assumed).
T1 construct: whole, on cells; also called double-tagged Frizzled5; Frz5 bait; not shown: FLAG/HA tag
In words: Rspo1-Fc pull-down (proteinG beads) from transfected HEK293T cells, FLAG western blot.

Assay [2] concerns the target T2, Lgr5 ΔN (deletion of the extreme N-terminus of Lgr5, amino acids 28-50) (UniProt O75473 22-907).
T2 construct: whole, on cells; Deletion construct
T2 sequence (looked up): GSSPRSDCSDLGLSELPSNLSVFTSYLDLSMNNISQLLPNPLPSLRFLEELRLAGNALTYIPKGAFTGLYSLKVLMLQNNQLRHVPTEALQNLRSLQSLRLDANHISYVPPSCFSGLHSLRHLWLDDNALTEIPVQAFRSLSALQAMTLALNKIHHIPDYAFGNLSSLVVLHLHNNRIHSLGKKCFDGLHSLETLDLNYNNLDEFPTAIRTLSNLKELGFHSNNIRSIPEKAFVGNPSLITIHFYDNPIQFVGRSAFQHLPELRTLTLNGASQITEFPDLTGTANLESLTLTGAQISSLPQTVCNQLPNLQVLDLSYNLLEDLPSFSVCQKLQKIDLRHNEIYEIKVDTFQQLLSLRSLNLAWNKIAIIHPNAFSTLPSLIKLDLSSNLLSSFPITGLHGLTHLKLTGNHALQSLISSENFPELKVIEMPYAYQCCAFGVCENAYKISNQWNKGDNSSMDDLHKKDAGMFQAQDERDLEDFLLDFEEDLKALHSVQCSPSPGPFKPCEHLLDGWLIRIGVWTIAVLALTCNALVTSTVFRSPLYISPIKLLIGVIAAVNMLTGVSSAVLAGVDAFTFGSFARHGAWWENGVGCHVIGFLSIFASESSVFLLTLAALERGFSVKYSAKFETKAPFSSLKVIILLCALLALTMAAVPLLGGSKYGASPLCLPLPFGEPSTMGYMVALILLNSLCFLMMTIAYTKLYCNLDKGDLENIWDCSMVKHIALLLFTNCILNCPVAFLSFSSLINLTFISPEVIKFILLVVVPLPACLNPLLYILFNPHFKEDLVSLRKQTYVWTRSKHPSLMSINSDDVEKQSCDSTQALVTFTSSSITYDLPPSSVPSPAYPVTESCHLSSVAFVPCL
Briefly: right panels: incubation with Rspo1 after cell lysis, FLAG immunoprecipitation, anti-hIgG-Fc Western blot.

The target of assay [3] is T3, Lgr5 ΔLRR1-17 (deletion of N-terminus and entire LRR region) (UniProt O75473 22-907).
T3 construct: whole, on cells; Deletion construct
T3 sequence (looked up): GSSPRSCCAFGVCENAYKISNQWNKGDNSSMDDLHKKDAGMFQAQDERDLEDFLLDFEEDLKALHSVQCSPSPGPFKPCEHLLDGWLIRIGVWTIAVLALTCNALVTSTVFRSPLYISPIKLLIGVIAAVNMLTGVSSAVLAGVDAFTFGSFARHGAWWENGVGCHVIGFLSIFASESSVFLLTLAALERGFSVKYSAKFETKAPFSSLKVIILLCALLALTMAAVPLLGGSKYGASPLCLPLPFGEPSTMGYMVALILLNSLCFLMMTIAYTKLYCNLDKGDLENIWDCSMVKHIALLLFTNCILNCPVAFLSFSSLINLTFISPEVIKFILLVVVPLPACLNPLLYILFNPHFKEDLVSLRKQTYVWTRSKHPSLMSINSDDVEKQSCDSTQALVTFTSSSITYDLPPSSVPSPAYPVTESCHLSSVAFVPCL
The description is as above.

Assay [4] has as its target T4, control Lgr7 (Homo sapiens (Human), UniProt Q9HBX9 1-757).
T4 construct: not shown: the sister constructs are FH-tagged
T4 sequence: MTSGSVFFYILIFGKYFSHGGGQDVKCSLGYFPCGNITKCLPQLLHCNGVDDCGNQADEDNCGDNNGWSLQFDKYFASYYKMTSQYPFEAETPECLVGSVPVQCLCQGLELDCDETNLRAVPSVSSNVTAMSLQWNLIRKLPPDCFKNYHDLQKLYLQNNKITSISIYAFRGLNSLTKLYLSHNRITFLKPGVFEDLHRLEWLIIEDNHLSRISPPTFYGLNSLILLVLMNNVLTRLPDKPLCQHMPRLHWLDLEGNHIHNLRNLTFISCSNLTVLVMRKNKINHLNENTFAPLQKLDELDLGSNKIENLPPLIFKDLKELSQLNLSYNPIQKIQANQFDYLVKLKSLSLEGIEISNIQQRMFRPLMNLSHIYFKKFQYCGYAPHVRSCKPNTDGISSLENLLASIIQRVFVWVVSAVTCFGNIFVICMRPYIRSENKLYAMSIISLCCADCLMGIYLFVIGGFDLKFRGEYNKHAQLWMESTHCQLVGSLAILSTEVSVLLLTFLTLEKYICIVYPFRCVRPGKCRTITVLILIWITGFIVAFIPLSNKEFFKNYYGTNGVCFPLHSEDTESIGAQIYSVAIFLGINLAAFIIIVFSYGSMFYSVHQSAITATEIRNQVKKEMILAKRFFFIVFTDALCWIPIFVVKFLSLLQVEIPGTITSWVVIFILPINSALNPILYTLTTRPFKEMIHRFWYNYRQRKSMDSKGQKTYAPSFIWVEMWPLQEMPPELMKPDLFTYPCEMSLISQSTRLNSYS
Briefly: HEK293T cells transfected with the tagged Lgr, incubated with Rspo1-Fc, protein G immunoprecipitation, anti-FLAG Western blot. An excerpt:
FIG. 7A: Rspondin1 binds to Lgr4, Lgr5 and Lgr6. […] Bottom: Input of tagged proteins.
(In general: A western blot detects proteins with antibodies after separation by electrophoresis.)

Assay [5] deals with T5, LGR5-478 (exo domain of LGR5 without the CRL region) (UniProt O75473 22-478).
T5 construct: domain: exo domain of LGR5 without the CRL region; Purified protein
T5 sequence (looked up): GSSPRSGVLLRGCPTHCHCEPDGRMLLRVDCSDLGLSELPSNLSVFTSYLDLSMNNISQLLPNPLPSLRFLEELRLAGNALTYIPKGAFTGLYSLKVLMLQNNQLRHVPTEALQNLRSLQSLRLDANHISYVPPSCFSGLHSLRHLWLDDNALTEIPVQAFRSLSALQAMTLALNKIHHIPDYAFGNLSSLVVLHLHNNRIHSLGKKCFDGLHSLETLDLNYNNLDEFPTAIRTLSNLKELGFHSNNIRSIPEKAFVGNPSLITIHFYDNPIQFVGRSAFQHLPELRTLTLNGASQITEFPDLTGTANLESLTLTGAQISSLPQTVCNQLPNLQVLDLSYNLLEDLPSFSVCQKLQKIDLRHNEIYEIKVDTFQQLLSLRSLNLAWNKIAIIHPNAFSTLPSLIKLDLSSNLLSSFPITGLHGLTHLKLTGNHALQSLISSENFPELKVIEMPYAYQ
In words: gel filtration of purified proteins.

T1 sequence (Q13467 27-585 limits assumed): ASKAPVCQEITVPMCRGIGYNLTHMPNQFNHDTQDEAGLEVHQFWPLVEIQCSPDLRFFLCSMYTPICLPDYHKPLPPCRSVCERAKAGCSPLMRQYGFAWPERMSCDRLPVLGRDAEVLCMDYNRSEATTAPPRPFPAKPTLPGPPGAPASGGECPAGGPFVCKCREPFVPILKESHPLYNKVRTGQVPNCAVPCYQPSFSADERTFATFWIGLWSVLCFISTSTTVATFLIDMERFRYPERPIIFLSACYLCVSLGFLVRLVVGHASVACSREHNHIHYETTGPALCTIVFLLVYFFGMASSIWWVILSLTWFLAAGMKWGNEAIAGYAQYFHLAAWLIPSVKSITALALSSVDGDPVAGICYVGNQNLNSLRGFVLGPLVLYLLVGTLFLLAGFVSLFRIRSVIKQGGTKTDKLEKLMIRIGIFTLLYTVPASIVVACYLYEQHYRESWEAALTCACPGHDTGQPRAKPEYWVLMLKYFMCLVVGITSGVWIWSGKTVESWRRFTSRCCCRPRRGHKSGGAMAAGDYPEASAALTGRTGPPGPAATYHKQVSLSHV

B1: Rspo1-Fc fusion protein (Fc fusion)
chain: SRGIKGKRQRRISAEGSQACAKGCELCSEVNGCLKCSPKLFILLERNDIRQVGVCLPSCPPGYFDARNPDMNKCIKCKIEHCEACFSHNFCTKCKEGLYLHKGRCYPACPEGSSAANGTMECSSPAQCEMSEWSPWGPCSKKQQLCGFRRGSEERTRRVLHAPVGDHAACSDTKETRRCTVRRVPCPEGQKRRKGGQGRRENANRNLARKESKEAGAGSRRRKGQQQQQQQGTVGPLTSAGPA
notes: also called Rspondin1 IgFc fusion protein; not shown: Fc (IgFc) part
For the molecule B1, the binding result in assay [1] is listed as “no binding (tested: ˜1 µg/ml)”; in assay [2] it was “no binding”; in assay [3], “no binding”; in assay [4], “no binding (tested: ~1 µg/ml)”.

B2: antibody 1D9 (antibody, V domains shown)
VH: EVKLQESGAALVKPGASVKLSCKASGYTFTDYYIHWVKQSHGKSLEWIGYINPNSGYTNYNEKFKSKATLTVDKSTNTAYMELSRLTSEDSATYYCTRFGSYWYFDFWGQGTTVTVSS
VL: MTQSPTSMSISIGDRVTMNCKASQNVDSNVDWYQQKTGQSPKLLIYKASNRYTGVPDRFTGSGSGTDFTFTISNMQAEDLAVYYCMQSNSYPLTFGSGTKLEIKR
notes: Rat monoclonal antibody against human Lgr5; hybridoma LMBP 6961CB; also called Ab1; 1D9 A5
For the molecule B2, the binding result in assay [5] was “no binding”.
